{"source": "patent US8809529B2", "about": "“Imidazo[1,2-α]pyrazine derivatives” (Promega Corporation, priority 2010, dated 2014)", "molecules": {"B1": {"name": "9B8 opt-P: 9B8 opt further comprising the PEST protein degradation sequence (protein)", "chain": "MVFTLEDFVGDWRQTAGYNLDQVLEQGGLSSLFQKLGVSVTPIQKIVLSGENGLKIDIHVIIPYEGLSGYQMGQIEKIFKVVYPVDDHHFKVILHYGTLVIDGVTPNMIDYFGRPYEGIAVFDGKKITVTGTLWNGNKIIDERLINPDGSLLFRVTINGVTGWRLCERILANSHGFPPEVEEQAAGTLPMSCAQESGMDRHPAACASARINV"}}, "key": {"OgLuc variant 9B8 opt": {"molecular_target": "T1, OgLuc variant 9B8 opt (Oplophorus gracilirostris, UniProt Q9GV45, A31E/A60K/A81I/F95Y/I117V/L99Q/M102K/N193R/P142E/Q151K/Q38R/Q45L/V71I/Y165I)", "T1 construct": "made in house; host or cells: E. coli (crude lysate)", "assay": "Multiplex assay with red click beetle luciferase and 9B8 opt (modified DUAL-GLO)", "format": "biochemical", "experimental": "A. Lysates of E. coli expressing the variant 9B8 opt were prepared as previously described in Example 27 and diluted 1000-fold in DMEM without phenol red+0.1% PRIONEX®. Luminescence from a sample containing 6.3 μg/mL of purified red click beetle luciferase and E. coli lysate expressing the variant 9B8 opt was detected using a modified DUAL-GLO® Luciferase Assay System (Promega Corp.). DUAL-GLO® STOP&GLO® Reagent containing 20 μM coelenterazine-h and DUAL-GLO® STOP&GLO® Reagent containing 20 μM PBI 3939 were used, according to the manufacturer's protocol, to detect the red click beetle luciferase and OgLuc variant 9B8 luciferase from a single sample. Three replicates were performed.\nLuminescence was detected on a Turner MODULUS™ luminometer. […] The standard deviation (“+/−”) and coefficient of variance (“CV”) are also shown. A “no coelenterazine” control was performed to illustrate the amount of quenching of the red click beetle signal by the DUAL-GLO® STOP&GLO® Reagent of the DUAL-GLO® Luciferase Assay System in the absence of coelenterazine. The “no coelenterazine” control yielded a 349-fold quench."}, "HEK293 cells [1]": {"system": "HEK293 cells", "assay": "Toxicity of coelenterazines in HEK293 cells (CELLTITER-GLO)", "conditions": "24 hrs after compound addition"}, "[2]": {"assay": "Stability of coelenterazines in reporter reagent buffer (T90)", "conditions": "time for luminescent signal to decay by 10% at 22° C.; read with OgLuc variant IV lysate"}, "[3]": {"assay": "Luminescence screen of OgLuc variants in lysed E. coli cells", "format": "biochemical", "conditions": "QC27-9a versus C1+A4E", "experimental": "Resulting libraries were expressed in E. coli and primarily screened with a robotic system for OgLuc variants having increased light output (i.e., increased luminescence, increased brightness, or increased light emission) or a change in relative specificity compared to the corresponding starting OgLuc variant. The robotic primary screen was conducted as follows: individual colonies from the generated library were used to inoculate minimal media in 96-well plates and grown at 37° C. for 17 to 20 hrs (“M1 culture”). The M1 culture was diluted 1:20 with fresh minimal media and grown at 37° C. for 17-20 hrs (“M2 culture”). […] The use of the different induction media was determined based on the luminescence generated between C1+A4E and the novel coelenterazines, i.e., the induction media containing rhamnose and glucose were used with novel coelenterazines that generated less luminescence with C1+A4E compared to the other novel coelenterazines with C1+A4E.\nLuminescence measurements for each variant were taken 3 min after reagent addition and relative luminescence unit (RLU) values were normalized to an average of 8 control wells of the corresponding starting OgLuc variant for each plate. […]"}, "HEK293 cells [4]": {"system": "HEK293 cells", "conditions": "human, 24 h"}, "[5]": {"system": "cAMP response element (CRE)", "assay": "CRE transcriptional reporter, forward transfection, HEK293 cells", "format": "cell-based, human", "set-up": "Response: scale not given here", "conditions": "for baseline: 10 nM FSK; for baseline / RLU (10 μM FSK): 3 h", "experimental": "HEK293 cells were plated at 15,000 cells/well in six 96-well tissue culture plates. Cells were grown in 100 μL of DMEM+10% FBS+1× non-essential amino acids (NEAA) and incubated overnight at 37° C. The cells were transiently transfected with either 10 ng or 100 ng plasmid DNA/well of pGL4.29 9B8 opt, pGL4.29 9B8 opt-P, or pGL4.29. Plasmid DNA was mixed with 850 μL of OPTI-MEM® (Invitrogen) and 32.4 μL of FUGENE® HD transfection reagent (Promega Corp.) and incubated at room temperature for 10 min. Eight μL of the transfection/reporter DNA mixture was added to the appropriate wells (2 constructs/plate). Cells were incubated for 4 hrs at 37° C. The medium was replaced with OPTI-MEM®+0.5% dialyzed FBS+1×NEAA+1× sodium pyruvate+1× Penn-Strep and incubated overnight at 37° C.\nA lytic reagent containing 100 mM MES pH 6.1, 1 mM CDTA, 150 mM KCl, 35 mM thiourea, 2 mM DTT, 0.25% TERGITOL® NP-9 (v/v), 0.025% MAZU® DF 204, and 20 μM PBI-3939 was added to the cells containing pGL4.29 9B8 opt or pGL4.29 9B8 opt-P and allowed to incubated for 10 min at room temperature (100 μL lytic reagent added to 100 μL cells). ONE-GLO™ assay reagent (Promega Corp.) was added to cells containing pGL4.29 and used according to the manufacturer's protocol (100 μL reagent added to 100 μL cells). Luminescence was measured on a GLOMAX® Luminometer."}, "[6]": {"system": "antioxidant response element (ARE)", "assay": "ARE transcriptional reporter, reverse transfection, HEK293 cells", "format": "cell-based, human", "conditions": "for baseline: 24 h, 100 ng DNA", "experimental": "HEK293 cells were trypsinized (T75 flask, 3 mL trypsin) and resuspended in […] (approximately 8.9×10^6 total cells) in medium containing DMEM+10% FBS+1×NEAA. Each transcriptional reporter was prepared for transfection by mixing 1.2 mL OPTI-MEM®, 12 μL transcription reporter DNA (100 ng) and 36 μL FUGENE® HD transfection reagent together and incubated at room temperature for 35 min. Following incubation, 624 μL of the transfection/reporter DNA mixture was added to 12 mL of cell suspension and mixed by inversion. After mixing, 100 μL of the cell/DNA mixture was added to wells of a 96-well plate (2 constructs/plate). The cells were incubated at 37° C. for 22 hrs. Tert-butylhydroquinone (a Nrf2 stabilizer; tBHQ; 1 μM (“baseline”) or 20 μM) or sulphoraphane, (an organosulfer antioxidant known to activate Nrf2; 1 μM (“baseline”) or 20 μM) in OPTI-MEM® was added to each well and incubated at 37° C. for 24 hrs. Cells were lysed with 100 μL lytic reagent as described above for the forward transfection. Luminescence was measured on a GLOMAX® Luminometer."}, "CRE [7]": {"system": "CRE", "assay": "CRE transcriptional reporter, bulk transfection, HEK293 cells", "format": "cell-based, human", "experimental": "(§1) The transcriptional reporter containing […] and 9B8 opt-P was used in the bulk transfection of HeLa cells\n(§2) HEK293, NIH3T3, or HeLa cells were plated to a single well of a 6-well tissue culture plate the day before transfection at a density of 4.5×10^5 cells/well in 3 mL complete medium (DMEM+10% FBS+1×NEAA+1× sodium pyruvate) for HEK293 cells, 3×10^5 cellsNvell in 3 mL complete medium (DMEM+10% fetal calf serum (FCS)+1×NEAA+1× sodium pyruvate) for NIH3T3 cells, or 9.9×10^5 cells/well in 3 mL complete medium (DMEM+10% FBS+1×NEAA) for HeLa cells. Cells were grown overnight at 37° C.\n(§3) 3,300 ng of reporter plasmid DNA in 155 4 OPTI-MEM® was mixed with 9.9 μL FUGENE® HD transfection reagent, vortexed briefly, and incubated at room temperature for 10 min. The CRE transcriptional reporters were used to transfect HEK293 and NIH3T3 cells. The HRE transcriptional reporters were used to transfect HeLa cells. The reporter mixture was added to cells and mixed by gentle rocking followed by incubation at 37° C. for 6 hrs (HEK293 and NIH3T3) or 3 hrs (HeLa). Cells were then trypsinized and resuspended in medium (DMEM+10% FBS+1×NEAA+1× sodium pyruvate for HEK293 cells, DMEM+10% FCS+1×NEAA+1× sodium pyruvate for NIH3T3 cells, or DMEM+10% FBS+1×NEAA for HeLa cells), followed by plating to the individual wells of a 96-well plate (20,000 cells/100 μL for HEK293, 10,000 cells/100 4 for NIH3T3, or […] for HeLa) and incubated at 37° C. overnight.\n(§4) FSK (CRE stimulator) or 17-AAG (HRE stimulator; 17-Allylamino-demethoxy geldanamycin) in OPTI-MEM® was added to the cells (10 nM or 10 μM final concentration for FSK; 1 nM or 1 μM final concentration for 17-AAG) and incubated at 37° C. for 4 hrs (FSK) or 6 hrs (17-AAG). Plates were removed from the incubator and allowed to equilibrate to room temperature for 25 min. Cells were lysed with 100 μL lytic reagent as described above for the forward transfection. Luminescence was measured on a GLOMAX® Luminometer."}, "CRE [8]": {"system": "CRE", "assay": "CRE transcriptional reporter, bulk transfection, NIH3T3 cells", "format": "cell-based", "experimental": "as §1, §2, §3, §4"}, "[9]": {"system": "heat shock response element (HRE)", "assay": "HRE transcriptional reporter, bulk transfection, HeLa cells", "format": "cell-based", "experimental": "as §1, §2, §3, §4"}, "[10]": {"system": "antioxidant response element (ARE)", "assay": "ARE transcriptional reporter, reverse transfection, HEK293 cells", "format": "cell-based, human", "conditions": "24 h, 100 ng DNA"}}, "note": "Where two headings read alike, the source gives them in different places."}
{"molecule": "coelenterazine-h [Coelenterazine h, reference compound]", "values": [{"measurement": "Ogluc (average luminescence generated by 9B8 opt)", "setting": "OgLuc variant 9B8 opt; 20 μM substrate in DUAL-GLO STOP&GLO Reagent", "value": "921,440"}, {"measurement": "+/− coel", "setting": "OgLuc variant 9B8 opt; Ogluc signal relative to no coelenterazine control", "value": 64}, {"measurement": "Viability (normalized to vehicle (DMSO) control) (%)", "setting": "HEK293 cells [1]", "value": 100, "unit": "%"}, {"measurement": "Stability (pH 8) (T90 in hrs)", "setting": "[2]", "value": 2.1, "unit": "hrs"}]}
{"molecule": "O=c1c(Cc2ccc(O)cc2)nc2c(C3CC3)[nH]c(-c3ccccc3)cn1-2", "note": "[PBI-3897, 8-cyclopropyl-2-(4-hydroxybenzyl)-6-phenylimidazo[1,2-a]pyrazin-3(7H)-one]", "values": [{"measurement": "Change in relative specificity (novel coelenterazine/native coelenterazine)", "setting": "[3]", "value": "80,000X"}, {"measurement": "Viability (normalized to vehicle (DMSO) control) (%)", "setting": "HEK293 cells [4]", "value": 100, "unit": "%"}]}
{"molecule": "CC(C)c1[nH]c(-c2ccccc2)cn2c(=O)c(Cc3ccc(O)cc3)nc1-2", "note": "[PBI-3841]", "values": [{"measurement": "Change in relative specificity (novel coelenterazine/native coelenterazine)", "setting": "[3]", "value": "350,000X"}, {"measurement": "Viability (normalized to vehicle (DMSO) control) (%)", "setting": "HEK293 cells [1]", "value": 100, "unit": "%"}]}
{"molecule": "B1", "values": [{"measurement": "Response", "setting": "[5]; 10 ng DNA for transfection", "value": 121}, {"measurement": "baseline", "setting": "[5]; 10 ng DNA for transfection", "value": 11179}, {"measurement": "RLU (10 μM FSK)", "setting": "[5]; 10 ng DNA for transfection", "value": "1,353,459 RLU"}, {"measurement": "Response", "setting": "[5]; 100 ng DNA for transfection", "value": 168}, {"measurement": "baseline", "setting": "[5]; 100 ng DNA for transfection", "value": "122,071"}, {"measurement": "RLU (10 μM FSK)", "setting": "[5]; 100 ng DNA for transfection", "value": "20,544,753 RLU"}, {"measurement": "baseline", "setting": "[6]; 1 μM sulphoraphane", "value": "258,406"}, {"measurement": "baseline", "setting": "[6]; 1 μM tBHQ", "value": "317,238"}, {"measurement": "Response", "setting": "[6]; sulphoraphane", "value": 15}, {"measurement": "Response", "setting": "[6]; tBHQ", "value": 27}, {"measurement": "baseline", "setting": "CRE [7]; HEK293, 10 nM FSK, 4 h", "value": "3,960,000"}, {"measurement": "RLU (10 mM FSK)", "setting": "CRE [7]; HEK293, 4 h", "value": "460,000,000 RLU"}, {"measurement": "Response", "setting": "CRE [7]; HEK293, FSK", "value": 116}, {"measurement": "baseline", "setting": "CRE [8]; NIH3T3, 10 nM FSK, 4 h", "value": "410,461"}, {"measurement": "RLU (10 mM FSK)", "setting": "CRE [8]; NIH3T3, 4 h", "value": "3,720,000 RLU"}, {"measurement": "Response", "setting": "CRE [8]; NIH3T3, FSK", "value": 9}, {"measurement": "Response", "setting": "[9]; 17-AAG", "value": 12}, {"measurement": "RLU (1 mM 17-AAG)", "setting": "[9]; 6 h", "value": "3,204,000 RLU"}, {"measurement": "baseline", "setting": "[9]; 6 h", "value": "278,118"}, {"measurement": "RLU (20 μM sulphoraphane)", "setting": "[10]", "value": "3,940,000 RLU"}, {"measurement": "RLU (20 μM tBHQ)", "setting": "[10]", "value": "8,460,000 RLU"}]}
